This note sets out measurements from patent US20250346679A1 (INVOX PHARMA, published 2025).

Experiment [1] has as its target T1, cynomolgus PD-L1, cell-surface (cynomolgus).
T1 construct: also called HEK.cPD-L1; HEK.cyPD-L1
The experiment is described as follows: flow cytometry on HEK.cPD-L1. Here is the method:
(§1) Non-specific binding was also assessed by testing binding to HEK293 parental cells lacking human PD-L1 (Flp-In T-Rex 293 cell line, Life Technologies, R780-07).
(§2) HEK293, HEK.hPD-L1 and HEK.cPD-L1 suspensions were prepared in FACS buffer (DPBS (Gibco, 14190-094) containing 0.5% BSA (Sigma, A7906)) and seeded at 1×10⁵ cell/well in 100 μl in round bottomed 96-well plates (VWR, 734-1797). […] The washed cells were resuspended in the diluted antibody mixture, incubated at 4° C. for 30 minutes, and then washed once in FACS buffer. […] Dead cells were excluded and the fluorescence in the APC channel (638 nm 660/20) was measured. The geometric mean fluorescence intensity (GMFI) values were plotted vs the log concentration of antibody and the resulting curves were fitted using the log (agonist) vs response equation in GraphPad Prism.

Experiment [2] addresses T2, human PD-L1, cell-surface (human, UniProt Q9NZQ7 19-290).
T2 construct: also called HEK.hPD-L1; PD-L1 on MDA-MB-231, on Promega PD-L1 cells, on primary human cells
The experiment is described as follows: flow cytometry on HEK.hPD-L1. As for the experimental part:
as §1, §2

The target of experiment [3] is T3, human CD137, cell-surface (human, UniProt Q07011 24-255). The experiment is described as follows: cell-based or functional assay.
Experiment [4] deals with T4, cynomolgus CD137, cell-surface (cynomolgus, UniProt Q07011 24-255 (human entry)).
T4 chain: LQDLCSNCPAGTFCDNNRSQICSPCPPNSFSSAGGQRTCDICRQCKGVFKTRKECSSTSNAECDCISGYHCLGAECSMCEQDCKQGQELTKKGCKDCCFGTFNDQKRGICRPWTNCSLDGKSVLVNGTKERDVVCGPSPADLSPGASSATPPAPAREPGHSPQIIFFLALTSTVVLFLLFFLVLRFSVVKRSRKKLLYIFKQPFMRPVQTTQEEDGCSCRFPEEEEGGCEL
Description: cell-based or functional assay.

Experiment [5] has as its target T5, mouse FcRn (R&D systems, 9114-Fc) (mouse, UniProt Q61559 22-297; P01887 21-119, limits assumed).
T5 sequence (looked up) 1: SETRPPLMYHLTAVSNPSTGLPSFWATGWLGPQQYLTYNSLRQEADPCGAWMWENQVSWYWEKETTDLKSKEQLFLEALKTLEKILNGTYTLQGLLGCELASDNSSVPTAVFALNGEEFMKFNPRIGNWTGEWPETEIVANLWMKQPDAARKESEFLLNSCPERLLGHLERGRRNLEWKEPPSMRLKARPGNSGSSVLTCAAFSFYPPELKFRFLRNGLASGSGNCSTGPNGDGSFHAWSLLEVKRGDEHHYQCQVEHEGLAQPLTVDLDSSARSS
T5 sequence (looked up) 2: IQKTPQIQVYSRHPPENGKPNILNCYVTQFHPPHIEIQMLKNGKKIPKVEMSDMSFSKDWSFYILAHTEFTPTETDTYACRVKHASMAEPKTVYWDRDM
The experiment is described as follows: SPR, mAb^2 immobilised, FcRn in flow, pH 6.0, steady state affinity; pH 6.0. The source says: (§3) The neonatal Fc receptor (FcRn) binding is critical for antibody recycling (Martins et al., 2016). […] G1-AA/HeID1.3 was included as an isotype control IgG control lacking mutations in the CH3 domain.
(§4) Briefly, mAb² were individually coated on flow cell 2, 3 and 4 of Series S Sensor Chip CM5 (GE Healthcare, BR100530) to achieve a response of approximately 1000 RU. Flow cell 1 was activated/deactivated but left blank as a reference. Human FcRn (Acro Biosystems, FCM-H5286) or mouse FcRn (R&D systems, 9114-Fc) was dialysed and diluted in MHBS-EP⁺B pH 6.0 or pH 7.4 buffer (10 mM MES, FortéBio, 18-5026; 1×HBS-EP, GE Healthcare, BR100669; 0.1 mg/ml BSA, Sigma, A7906) and injected on flow cell 1, 2, 3 and 4 at 2000-3000 nM with 2-fold dilutions for 1 min at 80 μl/min and then allowed to dissociate in buffer for 3 min. […] Subtracted data (flow cell 2−flow cell 1, flow cell 3−flow cell 1, or flow cell 4−flow cell 1) was analysed using Biacore T200 Evaluation Software 2.0 to identify binding using the model steady state affinity.

Experiment [6] deals with Human FcRn (Acro Biosystems, FCM-H5286) (human, UniProt P55899 24-297; P61769 21-119). The description is as above.
Sequence of Human FcRn (Acro Biosystems, FCM-H5286) (P55899 24-297 limits assumed, chain 1 of 2): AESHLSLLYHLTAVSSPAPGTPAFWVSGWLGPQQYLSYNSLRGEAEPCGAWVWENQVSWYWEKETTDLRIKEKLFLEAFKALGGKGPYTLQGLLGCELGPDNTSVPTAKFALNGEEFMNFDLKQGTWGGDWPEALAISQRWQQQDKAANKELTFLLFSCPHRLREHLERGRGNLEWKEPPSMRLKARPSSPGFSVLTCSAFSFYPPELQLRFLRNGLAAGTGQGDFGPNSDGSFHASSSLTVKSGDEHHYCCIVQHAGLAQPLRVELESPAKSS
Sequence of Human FcRn (Acro Biosystems, FCM-H5286) (P61769 21-119 limits assumed, chain 2 of 2): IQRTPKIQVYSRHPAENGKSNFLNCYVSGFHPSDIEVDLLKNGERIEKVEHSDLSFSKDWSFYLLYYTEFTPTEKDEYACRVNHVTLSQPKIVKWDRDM
Excerpt: as §3, §4

Experiment [7] concerns the target T6, hCD137-mFc-Avi (human; mouse, UniProt Q07011 24-186, biotin on the Avi sequence where the biotinylated form was used).
T6 construct: also called human CD137-mFc-Avi; dimeric human CD137; not shown: mouse IgG2a Fc domain (mIgG2a Fc)
The experiment is described as follows: SPR, mAb^2 captured by anti-human Fab, antigen in flow. As for the experimental part: (§5) The binding of the anti-human CD137/PD-L1 mAb² to recombinant dimeric human and cynomolgus CD137 antigens was also measured by SPR using a Biacore T200 processing unit (GE Healthcare).
(§6) Briefly, 20 μg/ml anti-human Fab antibody (GE Healthcare, Human Fab Capture kit 28958325) was coated on flow cells 1, 2, 3 and 4 of a Biacore sensor S chip CM5 (GE Healthcare, BR100530) achieving a final response of approximately 5000 RU. […] The recombinant dimeric antigens, human CD137-mFc-Avi or cynomolgus CD137-mFc-Avi (see Example 1.1 for antigen details) diluted in HBS-EP buffer, were injected on flow cell 1, 2, 3 or 4 as appropriate at a concentration range of 81 nM to 0.037 nM with 3-fold dilutions for 4 minutes at 70 μl/min and then allowed to dissociate in buffer for 10 minutes. Regeneration was achieved by injecting 10 mM glycine pH 2.1 (GE Healthcare, Human Fab Capture kit 28958325) for 60 seconds at a rate of 30 μl/min. Data analysis was performed as described in Example 9.1.

Experiment [8] deals with T7, cCD137-mFc-Avi (cynomolgus; mouse).
T7 construct: also called cynomolgus CD137-mFc-Avi; Cyno CD137-mFc-Avi; not shown: mouse IgG2a Fc domain (mIgG2a Fc)
T7 chain: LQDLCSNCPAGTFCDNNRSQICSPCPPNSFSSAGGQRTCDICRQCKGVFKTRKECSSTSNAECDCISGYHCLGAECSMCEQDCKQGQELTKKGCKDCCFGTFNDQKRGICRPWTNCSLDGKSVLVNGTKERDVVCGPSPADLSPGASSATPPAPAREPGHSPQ
The experiment is described as above. Here is the method: as §5, §6

Experiment [9] addresses T3, human CD137, cell-surface. The experiment is described as follows: cell-based or functional assay. The source holds these as a separate data set.

T6 sequence (Q07011 24-186): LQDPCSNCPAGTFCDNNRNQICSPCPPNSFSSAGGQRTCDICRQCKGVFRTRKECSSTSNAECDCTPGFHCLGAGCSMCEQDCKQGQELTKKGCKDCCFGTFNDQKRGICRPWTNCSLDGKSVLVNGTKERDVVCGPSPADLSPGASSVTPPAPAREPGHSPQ
T2 sequence (Q9NZQ7 19-290): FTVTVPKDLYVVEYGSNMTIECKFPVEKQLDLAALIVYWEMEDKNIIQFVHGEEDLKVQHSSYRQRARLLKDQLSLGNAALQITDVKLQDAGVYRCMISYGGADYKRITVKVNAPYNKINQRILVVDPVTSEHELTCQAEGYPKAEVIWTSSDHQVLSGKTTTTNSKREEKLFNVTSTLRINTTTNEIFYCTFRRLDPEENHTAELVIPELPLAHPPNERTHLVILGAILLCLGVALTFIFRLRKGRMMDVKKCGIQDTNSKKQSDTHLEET
T1 sequence (chain, as listed by the source limits assumed): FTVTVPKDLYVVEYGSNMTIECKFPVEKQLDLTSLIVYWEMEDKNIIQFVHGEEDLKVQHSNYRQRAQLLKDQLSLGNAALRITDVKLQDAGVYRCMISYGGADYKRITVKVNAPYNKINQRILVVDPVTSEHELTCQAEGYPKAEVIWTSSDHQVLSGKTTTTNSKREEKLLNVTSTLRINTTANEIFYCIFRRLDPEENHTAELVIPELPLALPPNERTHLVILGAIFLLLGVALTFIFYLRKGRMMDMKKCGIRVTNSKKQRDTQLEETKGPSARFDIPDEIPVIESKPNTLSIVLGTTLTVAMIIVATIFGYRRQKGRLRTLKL

B1: FS22-172-003-AA/E12v2 (bispecific antibody, human IgG1, kappa, L234A L235A)
heavy: EVQLVQSGAEVKRPGASVKVSCKASGYPFTSYGISWVRQAPGQGLEWMGWISAYSGGTNYAQKLQGRVTMTTDTSTSTAYMELRSLRSDDTAVYYCARDLFPTIFGVSYYYYWGQGTLVTVSSASTKGPSVFPLAPSSKSTSGGTAALGCLVKDYFPEPVTVSWNSGALTSGVHTFPAVLQSSGLYSLSSVVTVPSSSLGTQTYICNVNHKPSNTKVDKKVEPKSCDKTHTCPPCPAPEAAGGPSVFLFPPKPKDTLMISRTPEVTCVVVDVSHEDPEVKFNWYVDGVEVHNAKTKPREEQYNSTYRVVSVLTVLHQDWLNGKEYKCKVSNKALPAPIEKTISKAKGQPREPQVYTLPPSRDELPYIIPPYNQVSLTCLVKGFYPSDIAVEWESNGQPENNYKTTPPVLDSDGSFFLYSKLTVGADRWLEGNVFSCSVMHEALHNHYTQKSLSLSPG
light: DIQMTQSPSTLSASVRDRVIITCRASQSIGNRLAWYQHKPGKAPKLLIYEASTSETGVPSRFSGSGSGTDFTLTISSLQPEDFATYYCQQSYSTPYTFGQGTKLEIKRTVAAPSVFIFPPSDEQLKSGTASVVCLLNNFYPREAKVQWKVDNALQSGNSQESVTEQDSKDSTYSLSSTLTLSKADYEKHKVYACEVTHQGLSSPVTKSFNRGEC
notes: PD-L1 site in the Fab, CD137 site in the CH3, LALA; also called anti-human CD137/PD-L1 mAb^2
In the case of B1, the EC50 was determined as 0.7 nM in experiment [1] and 3.7 nM in [2]. Moreover, the “EC50, IFN-γ release, human PBMC assay” value in experiment [3] amounted to 0.03 nM. For the same molecule, the “EC50, IFN-γ release, cynomolgus PBMC assay” value in experiment [4] stood at 0.08 nM. Also, the dissociation constant (Kd) in [5] came to 158 nM; in experiment [6], 1120 nM; in experiment [7] it was 0.7 nM; in experiment [8], 0.8 nM. The “EC50 (nM), IFN-γ release, CEF antigen recall assay (CD8+ T cell activation)” value in [9] is 0.03 nM.
